From the DeepSol protein solubility set

Assay: soluble on expression in E. coli; label from the status in PepcDB or PDB records

Sequence | soluble on expression in E. coli
MAHHHHHHMDDGTRIPEDVEVFLRAARAKDTFKCAELLKETPSLINSVEAGGFSALHFAAFNGDLEMIRILLEFKPNLELRNYDNNTPLIMAAKGHQNSAIKLLVDAGAEVNLRTPTGGTAAHFAASMGYVDTVRCLVELGADVMHEDSETGTLLHWAAHSGDINCIGEMIYGFKIPINVKDAHGGTALFTALFMKKFEAVEFLLEHGADPRVMIEGDKSTPLHIAVEHANTECVKLLLVFGADPHVANTSGETPTSLAEKAKNNSALRELMKPMLSEEKRKEEAARFKTQGNKVFEGGENVKAAKFYTLAIHLDSTNHVFFSNRAAAYFNQRYYNGAYWDSLRCISLAPDWPKGYFRKAATELAMKKADEALQTCERGLRLDPKNKDLLTIKEEARRQRNK | soluble
MAHHHHHHMDIGELPDDQFPGAQYIPDLHGLGRERQALSCKVHEMKIPGQVSPYHVPEGEESSERETLYDENGLPIRTNSNDQEGDKKLWSWTDDGKLKLLCSQPIIPVSVVQGILRRDKIILIPQVEVTDFVVPKIYNQNIKHDVPKLDIKVECSNVEIPNVKYVEKEIIIPIITGYTHKFIPKWDVHEVPRPVVKYIGEQKIVEVEVPEIKYIDKIVEREVVVDTVEKRVPKIIEIPKYVDEVKYVWKPIEKIVYIQKLVPKFDVNLECPPPLIVPYPVQTVKQIPPVMVRKDVKFPDCDYTDFNSPYGSLPIPREYVDYYTSRQKAQKGIFSNCCESNCKNGEDHHGGETYYDVSPSSAMGVSEESLQNELNICNSSNPFVNTSADSILNKGGPRQALDAACM | not soluble
MAHHHHHHMDPGAVMPGIVQMSKDNFDQLVGKEKAVLVEFYAPWCGHCKSMAPEYAALGAAYEASTNAKDLLLVGKVDATQDSDLGKRFGVTGFPTILYFAPGSLEPEKYKGGRTAEDFAKYLSSAIAGLRLTIPIEPQFAMELVHTNFDAVVKDPSKAVLVMFYAPWCGHCKALKPIYNTLAKVFSNDKDVVIARINADDAANRKIATEYAVAGFPTVYFFPKGADEKPVEYKNGRNLEDFLTFVNENAGKHRLANGDFSWECGVIAELAEAVALVATSSGESSKAAVEAVKAAAAKLAESEDAAYYIKAAERIAAKGPAYVESESARLKRTLGGSVAGDRRDNMVRRLNILTSIQKHMK | not soluble
MAHHHHHHMDTRGLRHLKSYLGKEGEQLARAKRASDVVPVLAARQAAAAAAARATAADVTTVSNTVPAPLSPSVMKYLGGRLASGATHKLSRTQMALAAALAAPGAPSTRGHAEGSENGETALAVTRAKVADMAAAVDTLAVSALELAARRAAEDTEARRSTAESSSLFVLVDTSSEAAEVAGQLEGRYGLTVLLLRDDNACRHPTFPSPASRAGVSTLRGTTSKTPAAERRKTKSNSRTVDEVAPKDEATESTPALAGAVVVVVATPAAFLAVDRRSAIWKFIGSCALLLRRAPTHTGSLLHTLKGIKAAASSSPTKTTPHALNAQRWACIGHVPAIAVLAAEQKWLTEPELDLLTTLRVERHVGSGVGVVSKSTEASVSSAVAALRAPVTVHYAVAQGTHRFQFLFGLLKGLAPHRGIVVHVATRECVAFLYDTLYSLVGELPSHVQLLSDYEGASAYTNMHTTADRQRLCVAFDSTVESGQNGKTAAVLLSCHGLVPRRGSVFLQYDVIPDLLNYNQFIAEVLSPGAVAADAGNDAGGTAPSAAAEVAVRRERMARRRKRSTSPTPAPVAARRVGADAANSAADASSGSKAAIPAAVNYTHILLLFRPNEVAGALRHLRRDGASRYRLEFRELGPRAGGRYFLIGEKLKSMNKKLFPVQNAAYDAYKATMRTYSTIGPRDVYDETKVSLEKVAEEFGYTELPLLDLRLKDTVFRPKEDYYRAARQKQDAERRAYKAFVQGNIVGESPEEHVADSVA | soluble
MAHHHHHHMDTRMKDLSFKVVLLGEGRVGKTSLISRYVHNAFDEKEASTVQASMHSSKAVPINDASSAPGAIREVDLALWDTAGQERFHALAPMYYRNADGAIIVYDVTDADTLRKVRTWAKELYAVVGEGKIQLVLCGNKADTPLAEREVSEGEGAAMAAELGASHFFASAKTGQNVAEVFSAMATQVARSREVTGMGGGVAAGGSSGSSGGGAYTGISGRTPSRSRARRGLMVVTEDGEAVTPGRSSPCEGRVYGGITPPRAHRYGSSGTNQPITLSADGSPDAAAAANKSGCC | soluble
MAHHHHHHMDTSARRCFVEVYTDGCDEPRLLQLEPTVKFHNVLRRFDKDGDLYWGDHRIDPQTTPVAVGMDCGVDKANTLWFIPALPRAKPCGVSRVDSTAPLGSPPPVDATEGPALRPARGTSLPAYFDDRAAPWHSSGDHAARGSLIRAWMASASAATTPSWYSRPRLLSPVPLSLPRSAVRVPHTQVQPPSGMPTDPIMHAAGGSRHTGAPVAALEAHGGEKIAPVRRLCAAPAPRAPSPPHSTVPVRRNAPVCIDPHVLVDDTSDAVEALQTELRHLSSEMRAMRLRNPLDYNSVTPMRQVVVRPAGMDAAPAIASPICLSMAEPSVEELATELHDKQMHRLYKQRHLYLTHDFHV | not soluble
MAHHHHHHMDVLGTCTALVATLQEPQEDIQSRDHYELVLLDGPSLPIVGVSSTGGLLAATSAASAAAAATAAVAAADDTMSSTEAAKESASDSDAAVTRVKTTIDLHQAFARFQRTDSAENYLLDVVYVGDCTMMLIRNGRVCYVTEEQAHQLDYPYQLGTGSNDTPKDGVRLLIPVEKGDIVVMGTDGIFDNLYPHRIVELIWPHLERVFSQHGYLQALGGAETAKAPANAVSYVKNRNLRTLLDDIMAALDMGANAVMADAMTVSRDVRCDSPYASKCIENGALFEGGKPDDMTLLISVIGESDDGEPSEQFSGSETAFPLPYRDWP | not soluble
MAHHHHHHMEDDFHVDEEYIKQLSEKYKNAEHPLFMDELPANIEENEDLHALYNLMIDDEDELSLAKNFKQVGNDYYQDGTKYFEDAIISYTKGIDILTKYWEDKNLEKRKAERGKLRNDSNSSPTEGTKSNAQNVSSQRISNGVSIENGESTAGEEAGKPAVKGDSTSSRKGTEITVLNGLHNEGGHRDDLRDNEIRGVLADLHCNRAIVHYKKKRYVKCLQDCRKAYAFNQTKFKSVYYSILCSYHLELYKDAHMYVNRFEDMTKSIDLKNHINLNEYEKMKEIIFKKDEDILERKKVDQNEKRKAEENEKNVANLVQDILHKRNIQMVENVYQQGNNVIPVLYVDTSMYIHFTVFLLYFERAIMETIIDFAENQSIMDHYDIVKKNKNNHLLFCYIEFPYDVFFMIHSSSYICDVLNRAKLFSPILSIHIIENEEANRQFRSGKTIKSIPL | not soluble
MAHHHHHHMEINISNITNSSNNKKERVNIHSHIKGLGVNTNIYLHENEISLSDEKYSMFFDNSCGLVGQFKAREASLFLVDLIKQKKLAGKCILLAGPSGSGKSALAIGISREINRKMPFVFLSGSEVYSNEIKKTEVILEAFRKSIHIKIKEEKLVYEGEVVDMVVEENECLYSLNKAKQINAIIITLKSVKGSKTLRLAPKIHEQIAREKIKIGDVIYIETNTGHVKRLGRCNDYAKEYDIEFDEYVSLPKGEVHKKKEVVQQISLHDIDLANANPTVGEDLASVLNSYLRPKKTEITEKLRVEINKTVNKFLESGLAEIIPGVLYIDEAHMLDIECFSYLNRAIESPLAPILIMATNRGICTVKGTDNIEPHGIPVDLLDRLIIIKTFPYTLKEIVQILALRAQTEKINITEEGMNYLAKIGIQSSLRFAMLLLEPSRILATLEGNTIIDIKHIEQADELFMDAKTSAHRVVDQSNKFVN | not soluble
MAHHHHHHMEQLNDDDERENLYFVDHGRPKYKHTDLLAMLRDAQSAIIRFSEENRDIIADAVNFASTSERANTLRKLEEAYLGIVKVQAPMVRCSRPAFRKLCRLWGTDVSYTHMIMADSFTCSDAARHADFSMYAGEERLVAQIASCSGPVAAEAATLLAPYCDAIDLNCGCPQRWIIKEGLGSALLQKPEVVADMVRCIHNGLSGGVDLPCVVKMRVSNDVGRSVDFARQCEAAGCGWITVHGRTPSCSAHAPVRLDAIRTIRECVSVPVVANGGVNNPQTALKTSLTTGAGAVMSATGLLANPACFYVPREGELLLFAPQRRGVDVALEASMGPCRGADEGASTAGSENSAWLKGLPGCPVEVISDFIRLSCVTDLASKATSMHLLKMGGNYLSPTERVFLAQMHSSFSVVSALQQLGLYTQDGKFRVVESVT | soluble
MAHHHHHHMERGKNPMEAELNRAPQEVSLSAFSLLFSEIVQYCLWKSKRGYRIEDSLHEMGLRVGYKLNEYLPYKNKTKRCVNIISILTFLSKHLWKYLFQHSSDLLKSQDSIYEYMLCDKNILLNRFISVPKDYGNINCASFAAGIVEGMLCSAEFQAEVTAHTVYEDEKNFNTTIFIKFYPEVVNRERGEK | not soluble
MAHHHHHHMERSLYYTPQLLWLQVMDRMPYEFTHYFVSSPPPHHEAMLSGIREQYGRPYSAAKPFDVELLGRLWNGHSRVMFATDNLVFSAVDHSVSDRWKEMGFQGTDPSTDFRGAGIFGLAQLVYLVEHHPEEWSAILTPDFMAAAAGLNVTMRLATMLGINSSLNQLSSSVLSKYSAREARLQLCRFIFDPSVDVATQRLSEVYCFAMRLLHYRWMRSTRNIMEFNQQLSSMYTELDRLLFLCNTLEELCSLL | not soluble
MAHHHHHHMFRDGYSLDSVCHRLRYEIGVPHDGVYLHEPPGGSFAAVTQFGVAVGVTREQLPHASRHYNVHALIFDDRGYHALDELPRLSVAPQAYLHRILLRCVSGDEAAVAQRLRHLSSNGFINYFGLESFGIGSNTLFDMAAFAFRREPHRSVGAYLQTLAECSPLHHQPYLSYANAEESTVAGAVAEWLRVCERAKLPRETRELLRKLHCYHLSQCHPSDATTISMEDVWKACPIMHRAEQSAAAFVWNAMASQRLLSFGSRPVKGDLVCRIGNRGAIEIAEVASDTDASHYTIDDVVLPIPCGGTPAAELRYPTHSVNEAFFTQFAKKHSLSFLFNSGVDPTPRAAATLGPYRRLVSRPRNLQAAVLQDPSSCAALKSDLFLLQEHQPTEGWSLDYRQRVREPSNFNVSERFRERMSCIRKRRAGEHSVALAFVLPAGSSPWVALREAFHMHYGTFHDFYGVS | not soluble
MAHHHHHHMFYLFDEKAMSTNIKVKSVKRLVYNRHIKGDEAVLSLDLSYDMSKAFNWNLKQLFLYVLVTYETPEKVKNEVIIQDYIITNKNVAKRTYKNFITKYSLKDYNNGLRNNNINLQVCYKYMPIVGLSRSYEGTKISYKLPAEYFDNLPSNYPLYYPDK | not soluble
MAHHHHHHMGKVRKNKQVRNLLKSLTERVDTDDGENEYARLTQTPVVSMRLSKVKFKTSLQNVLVEPYTERVKDFVAKNNYEIRMERALLDEIKNANQNMNRIGDVLSARGGKQGKTRDNHIIMSRYFHYLKDKDEDFGLSFFPVYKTFKSNASHFGDNLSSSLYPHELLQMGSMSSESFLKNSPKRISFPERGDS | not soluble
MAHHHHHHMGKYAVVVIGPAGSGKSTLCTVVAEHYATKGRSTHICNFDPAAEDLPYDPSIDIRELISLEDAMEGKGLGPNGGLVFCMEYLLGQGEVWLCDQLGDHEEDFIIVDMPGQLEVLSHIPAVPGFVRLLERSGFHVVVLFLLDALAATADAGKFVSGCTFALSCMVCFECPFMNVLTKCDLLPPAIREEALDHFCTCDFDYLNTKPLPERWREMVRTLAAVIFDFNLVTFRPMDNTDVAYVGNLCYLIDEALQVVDDAEVNDRDLPDASEAGEAVEDTMDWKHY | not soluble
MAHHHHHHMGTLEAQTQGPGSMNLDDIGSGSNAPEEVNVVIEVSQDSHPVKYEFDEKNGALWVDRFLPTAMYYPCNYGFIPNTIAGDGDPVDVLVLARFPVMPGAVICVRPVGVLMMNDEKGEDAKVLAVPATKVDQYYGNIVNYSDLPSSFLDSISHFFSFYKKLEKDKFVSVGCWQDAASAKELIRSAIIAAKKGEN | soluble
